Experimental data: patent US20220356237A1 (UNIVERSITY OF MIAMI, published 2022)

Experiments:
[1] = molecular target: T1, human secretogranin III (Scg3) (human, UniProt Q8WXD2 20-468, limits assumed); test: ELISA on immobilised Scg3 and Octet RED96
T1 construct: also called human Scg3; 1B1075
Method: (§1) Competitive binding to Scg3 was evaluated for Clone 49 and the other anti-Scg3 mAbs described in Table 1. Anti-Scg3 scFv Clone 49 (FIG. 3D) and Clone 78 (FIG. 3E) were expressed and purified. […] Bound scFv was detected by ELISA assay. Binding assays were also performed using an Octet RED96 system (Pall ForteBio), as described in Estep et al., MAbs 2013; 5:270-278.

[2] = molecular target: T1, human secretogranin III (Scg3); test: competition ELISA (excess mAb against Clone 78 scFv) and Octet RED96
Method: as §1

[3] = molecular target: T1, human secretogranin III (Scg3); test: method not given; protein pulldown with protein G beads at 5 ug/ml each is described in paragraph 100
Method: Protein pulldown. Scg3 (5 μg/ml) was incubated with aflibercept, VEGFR-Fc or VEGFR2-Fc (5 μg/ml) in PBS solution containing 0.5% Triton X-100 and BSA (1 mg/ml) for 1 h at 4° C. Protein G beads (20 μl) were added and incubated at 4° C. for 30 min with end-over-end rotation. The beads were washed three times with PBS by centrifugation, eluted with low pH buffer (100 mM glycine, pH 2.7) and analyzed by Western blot using anti-Scg3 pAb.

T1 sequence (Q8WXD2 20-468 limits assumed): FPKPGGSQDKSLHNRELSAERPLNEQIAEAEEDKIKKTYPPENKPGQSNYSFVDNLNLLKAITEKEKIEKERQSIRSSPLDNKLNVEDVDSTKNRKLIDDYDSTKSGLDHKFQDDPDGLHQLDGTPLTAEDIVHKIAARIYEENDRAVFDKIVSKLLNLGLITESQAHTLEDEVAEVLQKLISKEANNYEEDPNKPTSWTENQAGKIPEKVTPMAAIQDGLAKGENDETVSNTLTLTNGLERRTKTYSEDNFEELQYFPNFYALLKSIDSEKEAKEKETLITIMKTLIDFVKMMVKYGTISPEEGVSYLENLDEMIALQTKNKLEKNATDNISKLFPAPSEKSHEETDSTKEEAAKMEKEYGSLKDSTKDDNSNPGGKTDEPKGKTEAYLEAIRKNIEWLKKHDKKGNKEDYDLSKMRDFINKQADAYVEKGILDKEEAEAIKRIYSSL

B1: anti-Scg3 mAb Clone 49 (antibody, V domains shown)
VH: EVKLEESGAELVKPGASVKLSCTASGFNIKDTYMHWVKQRPEQGLEWIGRIDPANGDTKYDPKFQGKATITADTSSNTAYLQLSSLTSEDTAVYYCARNGPGTPWFAYWGQGTLVTVSA
VL: DIQMTQSSSYLSVSLGGRVTITCKASDHINNWLTWYQQKPGNAPRLLISGATSLETGVPSRFSGSGSGKDYTLSITSLQTEDVATYYCQQYWSTPFTFGSGTKLEIKR
notes: also called Clone 49 mAb; CLONE 49 Monoclonal Antibody
B1: binds [1].

B2: anti-Scg3 mAb Clone 153 (antibody, V domains shown)
VH: GRKLQESGPELLKPGASVKISCKTSGYIFSTSWMNWVKQRPGQGLEWIGRIYPGDGHTNYNGKFKDKATLTADKSSSTAYMQLSSLTSVDSAVYFCARSADGYFFVYWGQGTLVTVSA
VL: DIVLTQTPLSLPVSLGDQASISCRSSQSIVHSNGNTYLEWYLQKPGQSPKLLIFKVSKRFSGVPDRFSGSGSGTDFTLKISRVEAEDLGVYHCFQGSHVPPTFGGGTKLEIKR
notes: Monoclonal antibody
B2: binds [2].

B3: anti-Scg3 mAb Clone 78 (antibody, V domains shown)
VH: EVQLQQSGPELLKPGASVKISCKTSGYIFSASWMNWVKQRPGQGLEWIGRIYPGDGHTNYNGKIKDKATLTADKSSSTAYMQLSSLTSVDSAVYFCARSADGYFFVDWGQGTLVTVSA
VL: DIVMTQTPVSLPVSLGDQASISCRSSQSIVHSNGNTYLEWYLQKPGQSPKLLIFKVSKRFYGVPDRFSGSGSGTDFTLKISRVEAEDLGVYHCFQGSHVPPTFGGGTKLEIKR
notes: also called Clone 78 mAb; CLONE 78 Monoclonal Antibody
B3: binds [1].

B4: anti-Scg3 mAb Clone 162 (antibody, V domains shown)
VH: PGKAEESGPEMLKPGASVKISCKTSGYIFSTSWMNWVKQRPGQGLEWIGRIYPGDGHTNYNGKFKDKATLTADKSSSTAYMQLSSLTSADSAVYFCARSADGYFFVYWGQGTLVTVSA
VL: DIVLTQTPLSLPVSLGDQASISCRSSQNIIHSNGNTYLEWYLQKPGQSPKLLIFKVSKRFSGVPDRFSGSGSGTDFTLKISRVEAEDLGVYHCFQGSHVPPTFGGGTKLEIKR
notes: Monoclonal antibody
B4: binds [2].

B5: anti-Scg3 mAb Clone 190 (antibody, V domains shown)
VH: EVKLEESGPELLKPGASVKISCKTSGYIFSSSWMNWVKQRPGQGLEWIGRIYPGDGHTNYNGKFKDKATLTADKSSSTAYMQLSSLTSVDSAVYFCARSADGYFFVYWGQGTPVTVSA
VL: DIVMTQSPLSLPVSLGDQASISCRSSQSIVHSNGNTYLEWYLQKPGQSPKLLIFKVSKRFSGVPDRFSGSGSGTDFTLKISRVGAEDLGIYYCFQGSHVPPTFGGGTKLEIKR
notes: Monoclonal antibody; also called CLONE 190 Monoclonal Antibody
B5: binds [2].

B6: aflibercept (Fc fusion, UniProt P17948 129-230, looked up)
chain: SDTGRPFVEMYSEIPEIIHMTEGRELVIPCRVTSPNITVTLKKFPLDTLIPDGKRIIWDSRKGFIISNATYKEIGLLTCEATVNGHLYKTNYLTHRQTNTIIDVVLSPSHGIELSVGEKLVLNCTARTELNVGIDFNWEYPSSKHQHKKLVNRDLKTQSGSEMKKFLSTLTIDGVTRSDQGLYTCAASSGLMTKKNSTFVRVHEK
notes: also called EYLEA; not shown: human IgG Fc
B6: no binding [3].
